From patent US20100056764A1 (Novo Nordisk, published 2010) come the findings set out here.

“And” between values parts separate entries of the source, which are not always exact repeats. Identical values can stand only once. Like-named read-outs stand apart in the source and are kept apart here.

For orientation: Kd means the free concentration of one partner at which half of the binding sites on the other are occupied at equilibrium, for simple one-to-one binding. By EC50 is commonly meant the concentration giving half of the maximal effect. The term IC50 denotes the concentration that inhibits the measured activity by half.

For one experiment, the target named is T1, dog NKG2D (dog, UniProt A0A8I3PNL2 1-217).
T1 construct: The assay format for the cross-reactivity test is not described
T1 sequence: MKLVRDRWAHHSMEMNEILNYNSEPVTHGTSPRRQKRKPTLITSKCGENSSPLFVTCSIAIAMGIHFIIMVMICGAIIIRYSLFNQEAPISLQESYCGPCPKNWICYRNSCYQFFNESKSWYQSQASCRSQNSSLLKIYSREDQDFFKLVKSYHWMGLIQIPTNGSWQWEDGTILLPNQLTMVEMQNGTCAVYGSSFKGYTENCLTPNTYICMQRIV
Briefly: not described.

Experiment [1] concerns the target T2, recombinant NKG2D-Fc protein (R&D Systems), immobilized on a Biacore CM5 chip (human, UniProt P26718 78-216).
T2 construct: also called NKG2D-hFc; hFc-NKG2D; not shown: Fc portion of the purchased fusion protein
T2 sequence: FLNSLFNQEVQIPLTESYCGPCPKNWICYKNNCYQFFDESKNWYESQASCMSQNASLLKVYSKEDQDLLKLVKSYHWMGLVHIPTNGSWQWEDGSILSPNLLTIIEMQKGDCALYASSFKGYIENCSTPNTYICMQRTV
Briefly: SPR (Biacore), mean of the two NKG2D-Fc densities. Here is the method:
(§1) Protein immobilisation. […] Recombinant NKG2D-Fc proteins were immobilized covalently to carboxyl groups in the dextran layer on a Sensor Chip CM5 (Biacore GE Healthcare; BR-1000-14). The sensor chip surface was activated with EDC/NHS (N-ethyl-N′-(3-dimethylaminopropyl)carbodiimidehydrochloride and N-hydroxysuccinimide (Biacore GE Healthcare; BR-1000-50)). Proteins were diluted to 10 μg/ml in coupling buffer (10 mM acetate, pH 5.2) and injected until the appropriate immobilization level was reached (i.e. 500 to 1000 RU). Deactivation of the remaining activated groups was performed using 100 mM ethanolamine pH 8 (Biacore GE Healthcare; BR-1000-50).
(§2) Affinity measurement. […] For kinetic experiments, serial dilutions of soluble antibodies (from 0.3 to 30 nanoM) were injected for 2 min at a constant flow rate of 40 μl/min on dextran layers containing immobilized NKG2D-Fc proteins (500 to 1000 RU), and allowed to dissociate for 3 min before regeneration by a eight second injection of 500 mM NaCl and 10 mM NaOH buffer. The resulting sensorgrams were analysed by global fitting using the Langmuir model. The dissociation constant (KD) was calculated as KD=kd/ka.
On the technique in general: SPR reads the build-up and loss of mass on a sensor chip optically.

Experiment [2] has as its target T3, human NKG2D (hNKG2D) on the cell surface (human, UniProt P26718 1-216).
T3 construct: Carried by BaF/3 cells co-transfected with full-length NKG2D and DAP10, or naturally by human NK, CD8+ T and gamma-delta T cells (PBMC, whole blood); also called cell-surface NKG2D; NKG2D- and DAP10-expressing BaF/3 cells
T3 chain: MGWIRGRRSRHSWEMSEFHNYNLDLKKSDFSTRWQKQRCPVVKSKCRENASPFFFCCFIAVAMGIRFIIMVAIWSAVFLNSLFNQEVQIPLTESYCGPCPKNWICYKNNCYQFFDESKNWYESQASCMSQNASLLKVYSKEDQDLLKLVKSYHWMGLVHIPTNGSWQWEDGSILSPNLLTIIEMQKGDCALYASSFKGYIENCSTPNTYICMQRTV
Briefly: flow cytometry, dose-response on NKG2D- and DAP10-expressing BaF/3 cells.

The target in experiment [3] is T2, recombinant NKG2D-Fc protein (R&D …). Briefly: SPR (Biacore), NKG2D-Fc immobilized on CM5 chip at 600 RU, antibody in solution, Langmuir fit. As to the method:
as §1, §2

For experiment [4] the target is unchanged. As to the kind of experiment: SPR (Biacore), NKG2D-Fc immobilized on CM5 chip at 1200 RU, antibody in solution, Langmuir fit. As to the method: Protein immobilisation. […] Recombinant NKG2D-Fc proteins were immobilized covalently to carboxyl groups in the dextran layer on a Sensor Chip CM5 (Biacore GE Healthcare; BR-1000-14). The sensor chip surface was activated with EDC/NHS (N-ethyl-N′-(3-dimethylaminopropyl)carbodiimidehydrochloride and N-hydroxysuccinimide (Biacore GE Healthcare; BR-1000-50)). […] Deactivation of the remaining activated groups was performed using 100 mM ethanolamine pH 8 (Biacore GE Healthcare; BR-1000-50).
[…] The resulting sensorgrams were analysed by global fitting using the Langmuir model. The dissociation constant (KD) was calculated as KD=kd/ka.

Experiment [5] deals with T3, human NKG2D (hNKG2D) on the cell surface. As to the kind of experiment: flow cytometry, NKG2D/DAP10 BaF/3 cells pre-incubated with antibody, then 1 µg MICA-mFc (competitor). Here is the method:
(§3) Flow cytometry assays—MICA blockade. […] The cells were then analysed on a B&D FACSArray flow cytometer. The degree of reduction of MICA binding by preincubation was analysed as MFI (mean fluorescence intensity) of binding with pre-incubation in % of binding of MICA without preincubation.

Experiment [6] has the same target. The description is as above. As to the method:
as §3

Experiment [7] addresses T4, rhesus monkey NKG2D on NK and CD8+ T cells (rhesus monkey (Macaca mulatta), UniProt Q9MZJ7 1-216).
T4 construct: whole, on cells; Target on rhesus PBMC; also called rhesus NKG2D
T4 sequence (looked up): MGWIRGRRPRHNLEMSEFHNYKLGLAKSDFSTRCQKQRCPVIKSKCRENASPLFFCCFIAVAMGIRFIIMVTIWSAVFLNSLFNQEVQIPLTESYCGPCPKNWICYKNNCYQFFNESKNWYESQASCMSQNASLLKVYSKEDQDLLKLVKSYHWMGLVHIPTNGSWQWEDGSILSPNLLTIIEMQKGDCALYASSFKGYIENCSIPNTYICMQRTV
As to the kind of experiment: flow cytometry on rhesus PBMC, NK cells gated; the legend names 16F16 purified from the original hybridoma. Here is the method: Flow cytometry assay—man and monkey PBMC. Perifieral blood mononuclear cells (PMBCs) were isolated from humans, or from Cynomologous or Rhesus monkey. All animal work were performed according to Danish National Research Council guidelines.
In general terms: In flow cytometry, cells or beads pass a laser one at a time.

B1: 16F16, fully human anti-hNKG2D monoclonal antibody, recombinantly expressed as IgG4 isotype (antibody, V domains shown)
VH: EVQLVESGGGLVKPGGSLRLSCAASGFTFSSYSMNWVRQAPGKGLEWVSSITSSSSYIYYADSVKGRFTISRDNAKNSLYLQMNSLRAEDTAVYYCARDRRYFDWFPLDYRGQGTLVTVSS
VL: DIQMTQSPSSLSASVGDRVTITCRASQGISSWLAWYQQKPEKAPKSLIYAASSLQSGVPSRFSGSGSGTDFTLTISSLQPEDFATYYCQQYNGYPYTFGQGTKLEIKR
notes: also called 16F16 IgG4; 16F16 (IgG4)
On to B1, for which the binding result with dog NKG2D was “no binding”; in experiment [7] it was “binds”. Besides, the Kd in experiment [1] was determined as 172 pM; in experiment [3], 165 pM; in experiment [4], 178 pM. Further, the concentration for a half-maximal effect (EC50) in experiment [2] is 0.051 µg/mL and ~0.34 nM. For the same molecule, the figures for the IC50 in experiment [5] and in experiment [6] were 17 pM and 0.019 µg/mL, respectively. In addition, in experiment [6], the “Full blockade of 1 µg MICA-Fc (antibody concentration)” value worked out at 0.59 µg/mL.
